# Laboratory results: US20170306033A1 (Amgen, published 2017)
# Where a chain is given by its changes, count along the chain named.
# T1: human PAC1 receptor (human, UniProt P41586 21-468)
# T1 sequence: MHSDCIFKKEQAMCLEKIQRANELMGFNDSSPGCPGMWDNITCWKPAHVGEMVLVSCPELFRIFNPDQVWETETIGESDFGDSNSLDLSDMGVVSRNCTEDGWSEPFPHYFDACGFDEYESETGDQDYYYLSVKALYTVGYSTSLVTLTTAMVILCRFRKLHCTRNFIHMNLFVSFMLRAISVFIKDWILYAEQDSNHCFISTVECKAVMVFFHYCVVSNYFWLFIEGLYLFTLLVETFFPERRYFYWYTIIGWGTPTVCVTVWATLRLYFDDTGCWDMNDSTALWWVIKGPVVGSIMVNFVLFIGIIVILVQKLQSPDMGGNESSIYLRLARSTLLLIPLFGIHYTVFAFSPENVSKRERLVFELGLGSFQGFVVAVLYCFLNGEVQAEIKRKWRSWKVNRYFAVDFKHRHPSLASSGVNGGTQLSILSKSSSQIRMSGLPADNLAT
# B1: iPS:328050 (bispecific antibody, human IgG1, kappa, lambda, N297G)
# light 1: DIQMTQSPSSLSASVGDRITITCRASQSISRYLNWYQQKPGKAPKLLIYAASSLQSGIPSRFSGSGSGTDFTLTINSLQPEDFATYFCQQSYSPPFTFGQGTKVDIKRTVAAPSVFIFPPSDEQLKSGTASVVCLLNNFYPREAKVQWKVDNALQSGNSQESVTEQDSKDSTYSLESTLTLSKADYEKHKVYACEVTHQGLSSPVTKSFNRGEC
# heavy 1: not shown
# light 2: QSVLTQPPSVSAAPGQKVTISCSGSSSNIGNNYVSWYQQLPGTAPKLLIYDNNKRPSGIPDRFSGSKSGTSTTLGITGLQTGDEADYYCGTWDSRLSAVVFGGGTKLTVLGQPKANPTVTLFPPSSEELQANKATLVCLISDFYPGAVTVAWKADGSPVKAGVETTKPSKQSNNKYAAKSYLSLTPEQWKSHRSYSCQVTHEGSTVEKTVAPTECS
# heavy 2: QVQLVESGGGVVQPGRSLRLSCAASGFTFSSFGMHWVRQAPGKGLEWVAVISFDGSIKYSVDSVKGRFTISRDNSKNTLFLQMNSLRAEDTAVYYCARDRLNYYDSSGYYHYKYYGMAVWGQGTTVTVSSASTKGPSVFPLAPSSKSTSGGTAALGCLVKDYFPEPVTVSWNSGALTSGVHTFPAVLQSSGLYSLESVVTVPSSSLGTQTYICNVNHKPSNTKVDKKVEPKSCDKTHTCPPCPAPELLGGPSVFLFPPKPKDTLMISRTPEVTCVVVDVSHEDPEVKFNWYVDGVEVHNAKTKPCEEQYGSTYRCVSVLTVLHQDWLNGKEYKCKVSNKALPAPIEKTISKAKGQPREPQVYTLPPSRKKMTKNQVSLTCLVKGFYPSDIAVEWESNGQPENNYKTTPPVLKSDGSFFLYSKLTVDKSRWQQGNVFSCSVMHEALHNHYTQKSLSLSPGK
# B2: iPS:327023 (bispecific antibody, human IgG1, kappa, N297G)
# light 1: B1 light 1 with Q100E
# heavy 1: not shown
# light 2: EIVLTQSPGTLSLSPGERATLSCRASQSVSSGYLTWYQQKPGQAPRLLIYGASSRATGIPDRFSGSGSGTDFTLTISRLEPEDFAVYYCQQYGNSLSRFGKGTKLEIKRTVAAPSVFIFPPSDEQLKSGTASVVCLLNNFYPREAKVQWKVDNALQSGNSQESVTEQDSKDSTYSLKSTLTLSKADYEKHKVYACEVTHQGLSSPVTKSFNRGEC
# heavy 2: not shown
# B3: iPS:328048 (bispecific antibody, human IgG1, kappa, lambda, N297G)
# light 1: not shown
# heavy 1: not shown
# light 2: B1 light 2
# heavy 2: B1 heavy 2 with K370E
# B4: iPS:328051 (bispecific antibody, human IgG1, kappa, lambda, N297G)
# light 1: not shown
# heavy 1: not shown
# light 2: B1 light 2
# heavy 2: B1 heavy 2
# B5: iPS:328049 (bispecific antibody, human IgG1, kappa, lambda, N297G)
# light 1: not shown
# heavy 1: not shown
# light 2: B1 light 2 with G103K
# heavy 2: B1 heavy 2 with G44E, K370E
# B6: iPS:326626 (bispecific antibody, human IgG2, kappa, lambda)
# light 1: not shown
# heavy 1: QVQLQQSGPGLVKPSQTLSLTCAISGDSVSSNSATWNWIRQSPSRGLEWLGRTYYRSKWSNHYAVSVKSRITINPDTSKSQFSLQLNSVTPEDTAVYYCARGTWKQLWFLDHWGQGTLVTVSSASTKGPSVFPLAPCSRSTSESTAALGCLVKDYFPEPVTVSWNSGALTSGVHTFPAVLQSSGLYSLKSVVTVPSSNFGTQTYTCNVDHKPSNTKVDKTVERKCCVECPPCPAPPVAGPSVFLFPPKPKDTLMISRTPEVTCVVVDVSHEDPEVQFNWYVDGVEVHNAKTKPREEQFNSTFRVVSVLTVVHQDWLNGKEYKCKVSNKGLPAPIEKTISKTKGQPREPQVYTLPPSREEMTKNQVSLTCLVDGFYPSDIAVEWESNGQPENNYDTTPPMLDSDGSFFLYSDLTVDKSRWQQGNVFSCSVMHEALHNHYTQKSLSLSPGK
# light 2: not shown
# heavy 2: not shown
# B7: iPS:327017 (bispecific antibody, human IgG1, kappa, N297G)
# light 1: not shown
# heavy 1: not shown
# light 2: B2 light 2 with K101Q
# heavy 2: not shown
# B8: iPS:327026 (bispecific antibody, human IgG1, kappa, N297G)
# light 1: EIVLTQSPATLSLSPGERATLSCRASQSVGRSLHWYQQKPGQAPRLLIKYASQSLSGIPARFSGSGSGTDFTLTISSLEPEDFAVYYCHQSSRLPFTFGEGTKVDIKRTVAAPSVFIFPPSDEQLKSGTASVVCLLNNFYPREAKVQWKVDNALQSGNSQESVTEQDSKDSTYSLESTLTLSKADYEKHKVYACEVTHQGLSSPVTKSFNRGEC
# heavy 1: not shown
# light 2: B2 light 2
# heavy 2: not shown
# B9: iPS:327092 (bispecific antibody, human IgG1, kappa, N297G)
# light 1: not shown
# heavy 1: not shown
# light 2: B2 light 2 with K101Q
# heavy 2: not shown
# B10: iPS:327024 (bispecific antibody, human IgG1, kappa, N297G)
# light 1: not shown
# heavy 1: not shown
# light 2: B2 light 2
# heavy 2: not shown
# B11: iPS:327019 (bispecific antibody, human IgG1, kappa, N297G)
# light 1: B8 light 1 with E100P
# heavy 1: not shown
# light 2: B2 light 2 with K101Q
# heavy 2: not shown
# B12: iPS:327093 (bispecific antibody, human IgG1, kappa, N297G)
# light 1: DIQLTQSPSFLSASVGDRVTITCRASQSIGRSLHWYQQKPGKAPKLLIKYASQSLSGVPSRFSGSGSGTEFTLTISSLQPEDFATYYCHQSSRLPFTFGPGTKVDIKRTVAAPSVFIFPPSDEQLKSGTASVVCLLNNFYPREAKVQWKVDNALQSGNSQESVTEQDSKDSTYSLESTLTLSKADYEKHKVYACEVTHQGLSSPVTKSFNRGEC
# heavy 1: not shown
# light 2: B2 light 2 with K101Q
# heavy 2: not shown
# B13: iPS:327025 (bispecific antibody, human IgG1, kappa, N297G)
# light 1: B12 light 1 with P100E
# heavy 1: not shown
# light 2: B2 light 2
# heavy 2: not shown
# B14: iPS:327091 (bispecific antibody, human IgG1, kappa, N297G)
# light 1: not shown
# heavy 1: not shown
# light 2: B2 light 2 with K101Q
# heavy 2: not shown
# B15: iPS:327018 (bispecific antibody, human IgG1, kappa, N297G)
# light 1: B12 light 1
# heavy 1: not shown
# light 2: B2 light 2 with K101Q
# heavy 2: not shown
# Molecular target: T1, human PAC1 receptor
# Experiment: cell-based or functional assay
row,% inhibition of human PAC1 [%],Binder
1,11,B1
2,32,B2
3,9,B3
4,21,B4
5,13,B5
6,86,B6
7,27,B7
8,78,B8
9,52,B9
10,7,B10
11,79,B11
12,68,B12
13,21,B13
14,67,B14
15,17,B15

# Molecular target: human CGRP receptor (human, UniProt Q16602 23-461; O60894 27-148)
# Sequence (Q16602 23-461 limits assumed, chain 1 of 2): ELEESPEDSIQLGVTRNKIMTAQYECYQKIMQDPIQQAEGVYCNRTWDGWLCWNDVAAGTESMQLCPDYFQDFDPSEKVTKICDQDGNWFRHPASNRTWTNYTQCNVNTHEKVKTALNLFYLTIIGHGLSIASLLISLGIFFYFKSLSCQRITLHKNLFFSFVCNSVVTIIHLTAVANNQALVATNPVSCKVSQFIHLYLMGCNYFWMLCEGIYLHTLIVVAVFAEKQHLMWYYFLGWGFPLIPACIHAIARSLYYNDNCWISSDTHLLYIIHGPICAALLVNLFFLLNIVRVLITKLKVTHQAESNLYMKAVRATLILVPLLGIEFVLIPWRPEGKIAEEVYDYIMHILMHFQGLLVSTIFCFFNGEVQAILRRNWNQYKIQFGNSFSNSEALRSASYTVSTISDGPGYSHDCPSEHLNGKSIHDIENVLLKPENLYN
# Sequence (O60894 27-148 limits assumed, chain 2 of 2): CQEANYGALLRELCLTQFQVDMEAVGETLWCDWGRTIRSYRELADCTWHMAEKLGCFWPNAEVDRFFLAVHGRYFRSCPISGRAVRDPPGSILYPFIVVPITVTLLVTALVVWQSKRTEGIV
# Experiment: cell-based or functional assay
row,% inhibition of human CGRPR [%],Binder
1,80,B1
2,74,B2
3,69,B3
4,77,B4
5,92,B5
6,96,B6
7,67,B7
8,81,B8
9,73,B9
10,75,B10
11,65,B11
12,70,B12
13,76,B13
14,65,B14
15,68,B15
